Sequences and labels used below:
B1: TfRANTIBODY-B HC-H4C/LC-L2 (C90V) hIgG1Fab′(1C) (Fab, V domains shown)
VH: QSLVESGGGVVQPGRSLRLSCKASGFSFSNSYWICWVRQAPGKGLEWVGCINTDADSTNYASWARGRFTISKTSSTTVYLQMNSLRAEDTAVYYCARQNNVFDPGYNLWGPGTLVTVSS
VL: ELVLTQSPSTLSASVGDRVTITCRASQNIGSNLAWYQQKPGKAPKLLIYDASKLESGVPSRFSGSGSGTEFTLTISSLQPDDFATYYCQVTVRGGAYGNAFGGGTKVEIKR
notes: also called ANTIBODY-B H4C/L2(C90V); H4C (C90V)/L2
B2: TfRANTIBODY-B HC-H3C/LC-L2 (C90V) hIgG1Fab′(1C) (Fab, V domains shown)
VH: QSLVESGGGVVQPGRSLRLSCAASGFSFSNSYWICWVRQAPGKGLEWVGCINTDADSTNYASWARGRFTISKDNSKNTLYLQMNSLRAEDTAVYYCARQNNVFDPGYNLWGQGTLVTVSS
VL: B1 VL
notes: also called ANTIBODY-B H3C/L2(C90V)
B3: TfRANTIBODY-B HC-H1C/LC-L2 (C90V) hIgG1Fab′(1C) (Fab, V domains shown)
VH: B2 VH with S62D, W63S, A64V, R65K, L79V
VL: B1 VL
notes: also called ANTIBODY-B H1C/L2(C90V)
B4: TfRANTIBODY-B HC-H3C/LC-L2 (C90T) hIgG1Fab′(1C) (Fab, V domains shown)
VH: B2 VH
VL: B1 VL with V90T
notes: also called ANTIBODY-B H3C/L2(C90T)
B5: TfRANTIBODY-B HC-H3C/LC-L2 (C90S) hIgG1Fab′(1C) (Fab, V domains shown)
VH: B2 VH
VL: B1 VL with V90S
notes: also called ANTIBODY-B H3C/L2(C90S)
B6: TfR1 ANTIBODY-A HC-H0 hIgG1 Fab′(1C)/LC-L0 hKappa (Fab, V domains shown)
VH: EVQLVESGGGLVQPGGSLRLSCAASGIDFSSSGYMAWVRQAPGKGLEWVGAIYTYSSNTYYAASVKGRFTISRDDSKNSLYLQMNSLKTEDTAVYYCARGTYGYTGYTYTMGYFSLWGQGTLVTVSS
VL: DIQMTQSPSTLSASVGDRVTITCQASQNINSYLAWYQQKPGKAPKLLIYRASSLESGVPSRFSGSGSGTEFTLTISSLQPDDFATYYCQSYYYSGSSNYNAFGGGTKVEIKR
notes: also called ANTIBODY-A H0/L0
B7: TfR1 ANTIBODY-A HC-H1 hIgG1 Fab′(1C)/LC-L1 hKappa (Fab, V domains shown)
VH: QSLVESGGGLVQPGGSLRLSCAASGIDFSSSGYMAWVRQAPGKGLEWVGAIYTYSSNTYYAASVKGRFTISRDDSKNSLYLQMNSLKTEDTAVYYCARGTYGYTGYTYTMGYFSLWGQGTLVTVSS
VL: B6 VL with S53T, E55A
notes: also called ANTIBODY-A H1/L1
B8: TfR1 ANTIBODY-A HC-H0 hIgG1 Fab′(1C)/LC-L1 hKappa (Fab, V domains shown)
VH: B6 VH
VL: B6 VL with S53T, E55A
notes: also called ANTIBODY-A H0/L1
B9: TfR1 ANTIBODY-A HC-H1C hIgG1 Fab′(1C)/LC-L1 hKappa (Fab, V domains shown)
VH: B7 VH with A35C, A50C
VL: B6 VL with S53T, E55A
notes: also called ANTIBODY-A H1C/L1
B10: TfR1 ANTIBODY-A HC-H2 hIgG1 Fab′(1C)/LC-L1 hKappa (Fab, V domains shown)
VH: QSLVESGGGLVQPGGSLRLSCAASGIDFSSSGYMAWVRQAPGKGLEWVGAIYTYSSNTYYAASVKGRFTISKTSSTTVYLQMNSLKTEDTAVYYCARGTYGYTGYTYTMGYFSLWGQGTLVTVSS
VL: B6 VL with S53T, E55A
notes: heavy chain derived; also called ANTIBODY-A H2/L1
B11: TfR1 ANTIBODY-A HC-H1 hIgG1 Fab′(1C)/LC-L2 hKappa (Fab, V domains shown)
VH: B7 VH
VL: B6 VL with D1E, I2L, Q3D, S53T, E55A
notes: also called ANTIBODY-A H1/L2
B12: TfR1 ANTIBODY-A HC-H2C hIgG1 Fab′(1C)/LC-L2 hKappa (Fab, V domains shown)
VH: B10 VH with A35C, A50C
VL: B6 VL with D1E, I2L, Q3D, S53T, E55A
notes: also called ANTIBODY-A H2C/L2
B13: TfR1 ANTIBODY-A HC-H0C hIgG1 Fab′(1C)/LC-L2 hKappa (Fab, V domains shown)
VH: B6 VH with A36C, A51C
VL: B6 VL with D1E, I2L, Q3D, S53T, E55A
notes: also called ANTIBODY-A H0C/L2
B14: TfR1 ANTIBODY-A HC-H0 hIgG1 Fab′(1C)/LC-L2 hKappa (Fab, V domains shown)
VH: B6 VH
VL: B6 VL with D1E, I2L, Q3D, S53T, E55A
notes: also called ANTIBODY-A H0/L2
B15: TfR1 ANTIBODY-A HC-H1C hIgG1 Fab′(1C)/LC-L2 hKappa (Fab, V domains shown)
VH: B7 VH with A35C, A50C
VL: B6 VL with D1E, I2L, Q3D, S53T, E55A
notes: also called ANTIBODY-A H1C/L2
B16: TfR1 ANTIBODY-A HC-H1 hIgG1 Fab′(1C)/LC-L0 hKappa (Fab, V domains shown)
VH: B7 VH
VL: B6 VL
notes: also called ANTIBODY-A H1/L0
B17: TfR1 ANTIBODY-A HC-H4C hIgG1 Fab′(1C)/LC-L2 hKappa (Fab, V domains shown)
VH: B10 VH with A22K, A35C, A50C, A62S, S63W, V64A, Q117P
VL: B6 VL with D1E, I2L, Q3D, S53T, E55A
notes: also called ANTIBODY-A H4C/L2
B18: TfR1 ANTIBODY-A HC-H3C hIgG1 Fab′(1C)/LC-L2 hKappa (Fab, V domains shown)
VH: QSLVESGGGLVQPGGSLRLSCKASGIDFSSSGYMCWVRQAPGKGLEWVGCIYTYSSNTYYASWAKGRFTISKDSKNSVYLQMNSLKTEDTAVYYCARGTYGYTGYTYTMGYFSLWGPGTLVTVSS
VL: B6 VL with D1E, I2L, Q3D, S53T, E55A
notes: also called ANTIBODY-A H3C/L2
B19: TfR1 ANTIBODY-A HC-H1C hIgG1 Fab′(1C)/LC-L0 hKappa (Fab, V domains shown)
VH: B7 VH with A35C, A50C
VL: B6 VL
notes: also called ANTIBODY-A H1C/L0
B20: TfR1 ANTIBODY-A HC-H2 hIgG1 Fab′(1C)/LC-L2 hKappa (Fab, V domains shown)
VH: B10 VH
VL: B6 VL with D1E, I2L, Q3D, S53T, E55A
notes: heavy chain derived; also called ANTIBODY-A H2/L2
B21: TfRANTIBODY-A HC-H3(SY) hIgG1Fab′(1C)/LC-L0 hKappa (Fab, V domains shown)
VH: B18 VH with C35S, C50Y
VL: B6 VL
notes: also called ANTIBODY-A H3(SY)/L0
B22: TfRANTIBODY-A HC-H3(HA) hIgG1Fab′(1C)/LC-L0 hKappa (Fab, V domains shown)
VH: B18 VH with C35H, C50A
VL: B6 VL
notes: also called ANTIBODY-A H3(HA)/L0; H3C(HA)/L0
B23: TfRANTIBODY-A HC-H3(SV) hIgG1Fab′(1C)/LC-L0 hKappa (Fab, V domains shown)
VH: B18 VH with C35S, C50V
VL: B6 VL
notes: also called ANTIBODY-A H3(SV)/L0
B24: TfRANTIBODY-A HC-H3(SR) hIgG1Fab′(1C)/LC-L0 hKappa (Fab, V domains shown)
VH: B18 VH with C35S, C50R
VL: B6 VL
notes: also called ANTIBODY-A H3(SR)/L0

Numbering of substitutions follows the chain as printed. In names and notes the source's numbering stands.

For the first assay, the target named is T1, human transferrin receptor 1 (TfR1), full length, expressed on cells (human, UniProt P02786 1-760).
T1 construct: also called human TfR1; huTfR
Kind of assay: FACS on Ba/F3 cells, Fab supernatant.
B1 gave an EC50 of 4.9 nM.
Still for that read-out and setting: as for B2, the figure is 7.7 nM; as for B3, 10.7 nM.
Still for that read-out and setting: under B4 stands 15.9 nM; under B5, 16.8 nM.

In another assay the target is T2, cynomolgus monkey transferrin receptor 1 (TfR1), full length, expressed on cells (cynomolgus monkey, UniProt Q5RDH6 1-760 (Pongo abelii entry)).
T2 construct: also called cyno TfR1; cyTfR
Kind of assay: FACS on Ba/F3 cells, Fab supernatant.
B1 gave a concentration giving a half-maximal response (EC50) of 2.2 nM.
Same read-out and setting: under B2 stands 3.2 nM; under B3, 2.9 nM; under B4, 6.3 nM.
Consider B5, for which the EC50 was found to be 6.2 nM.

The next assay deals with T1, human transferrin receptor 1 (TfR1), …. As to the kind of experiment: FACS on Ba/F3 cells, Fab supernatant. This is another data set of the same source.
Molecule B6 had an EC50 of 18 nM.
Same read-out and setting: as for B7, the figure is approximately 30 nM; as for B8, approximately 19 nM.
Same read-out and setting: under B9 stands 3.6 nM; under B10, 4.4 nM; under B11, more than 74 nM.
Same read-out and setting: under B12 stands 2.8 nM.
On to B13, for which the midpoint of the response, the EC50, lay at 3.6 nM.
The same measure, in the same setting: as for B14, the figure is more than 70 nM.
The same measure, in the same setting: as for B15, the figure is 3.6 nM.
For the molecule B16, the response was half-maximal at 25 nM (EC50).
Same read-out and setting: under B17 stands 1.6 nM; under B18, 1.6 nM.
Still for that read-out and setting: under B19 stands 2.5 nM; under B20, 6.5 nM.

A further assay deals with T2, cynomolgus monkey transferrin receptor …. As to the kind of experiment: FACS on Ba/F3 cells, Fab supernatant. This is another data set of the same source.
Regarding B6, the half-maximal effective concentration (EC50) was more than 85 nM.
Turning to B7, the concentration giving a half-maximal response (EC50) was more than 162 nM.
The molecule B8 gave an EC50 of more than 107 nM.
The same measure, in the same setting: as for B9, the figure is approximately 26 nM; as for B10, more than 36 nM; as for B12, 7.4 nM.
On the same count and under the same terms, under B15 stands approximately 39 nM; under B16, more than 176 nM; under B17, 3.3 nM.
Same read-out and setting: under B18 stands 10.4 nM.
B19: the half-maximal effective concentration (EC50) was determined as 15.5 nM.
The same measure, in the same setting: as for B20, the figure is more than 52 nM.

In another assay the target is T1, human transferrin receptor 1 (TfR1), …. Kind of assay: FACS on Ba/F3 cells, Fab supernatant. The source holds these as a separate data set.
B21 came in with a 50% effective concentration (EC50) of more than 125 nM.
Molecule B22 had an EC50 of 16.8 nM.
Same read-out and setting: under B23 stands more than 150 nM; under B24, more than 290 nM.

The target in a further assay is T2, cynomolgus monkey transferrin receptor …. Kind of assay: FACS on Ba/F3 cells, Fab supernatant. This is another data set of the same source.
For the molecule B21, the binding result is listed as “no binding”.
Turning to B22, the EC50 was approximately 30 nM.
Consider B23, for which the binding result is given as “no binding”.
Same read-out and setting: as for B24, the entry is “no binding”.

The target of a further assay is T3, recombinant human TfR1 extracellular domain, His-tagged (human, UniProt P02786 89-760).
T3 construct: also called Human TfR1 ECD; human TfR1 ECD-His
As to the kind of experiment: SPR, TfR1 ECD-His captured, Fab injected, 1:1 fit.
On to B12, for which the dissociation constant (Kd) is 2.2 nM, the dissociation rate constant (koff) is 0.00213 s⁻¹ and the kon stood at 952000 M⁻¹ s⁻¹.
With B17, the Kd was 1.6 nM, the off-rate (koff) was found to be 0.00148 s⁻¹ and the association rate constant (kon) stood at 931000 M⁻¹ s⁻¹.
The like results for B18 were, in that order, 2.4 nM, 0.00215 s⁻¹ and 886000 M⁻¹ s⁻¹.

For another assay, the target named is T4, recombinant cynomolgus monkey TfR1 extracellular domain, His-tagged (cynomolgus monkey, UniProt Q5RDH6 87-760 (Pongo abelii entry)).
T4 construct: also called Cyno TfR1 ECD; cyno TfR1 ECD-His
Kind of assay: SPR, TfR1 ECD-His captured, Fab injected, 1:1 fit.
As for B12, the dissociation constant Kd came out at 7.8 nM, the koff turned out to be 0.0137 s⁻¹ and the on-rate constant (kon) is 1.76e+06 M⁻¹ s⁻¹.
B17: the Kd was determined as 6.2 nM, the dissociation rate constant (koff) came to 0.0134 s⁻¹ and the kon was 2.16e+06 M⁻¹ s⁻¹.
In the same order, the values of B18 are 8.3 nM, 0.0178 s⁻¹ and 2.16e+06 M⁻¹ s⁻¹.
